Measured values reported in the supplement of paper PMC9112550, “Optimization of the antimicrobial peptide Bac7 by deep mutational scanning” (BMC Biology, 2022).

Tested on: Escherichia coli TOP10
Assay: shrunken log2 fold change of peptide-encoding DNA abundance (4.5 h post-induction vs induction); higher = less antimicrobial activity (less host growth inhibition)
Settings: time post-induction: 4.5 h; library: site-saturation at positions 5, 18, 19, 20
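Also: peptides expressed intracellularly from a pBAD plasmid library in pooled LB shake-flask culture, induced with 0.3% L-arabinose, DNA abundance read by NGS, three biological replicates, DESeq2 with apeglm shrinkage.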

Sequence: RRIRVRPPRLPRPRPRPGPFPRP
- shrunken log2 fold change: -0.0278

Sequence: RRIRSRPPRLPRPRPRPQQPPRP
- shrunken log2 fold change: -0.273

Sequence: RRIRPRPPRLPRPRPRPTAQPRP
- shrunken log2 fold change: 0.357

Sequence: RRIRKRPPRLPRPRPRPAFFPRP
- shrunken log2 fold change: 0.411

Sequence: RRIRRRPPRLPRPRPRPLGLPRP
- shrunken log2 fold change: 0.363

Sequence: RRIRKRPPRLPRPRPRPIIQPRP
- shrunken log2 fold change: 0.0837

Sequence: RRIRVRPPRLPRPRPRPMMWPRP
- shrunken log2 fold change: -0.368

Sequence: RRIRDRPPRLPRPRPRPYNYPRP
- shrunken log2 fold change: -0.27

Sequence: RRIRERPPRLPRPRPRPVEMPRP
- shrunken log2 fold change: 0.139

Sequence: RRIRVRPPRLPRPRPRPTNWPRP
- shrunken log2 fold change: 0.202

Sequence: RRIRQRPPRLPRPRPRPILCPRP
- shrunken log2 fold change: -0.0627

Sequence: RRIRHRPPRLPRPRPRPTQHPRP
- shrunken log2 fold change: -0.0131

Sequence: RRIRLRPPRLPRPRPRPPHRPRP
- shrunken log2 fold change: 0.182

Sequence: RRIRIRPPRLPRPRPRPPSCPRP
- shrunken log2 fold change: -0.0736

Sequence: RRIRGRPPRLPRPRPRPGKSPRP
- shrunken log2 fold change: 0.176

Sequence: RRIRVRPPRLPRPRPRPDELPRP
- shrunken log2 fold change: -0.0586

Sequence: RRIRLRPPRLPRPRPRPLGTPRP
- shrunken log2 fold change: 0.18

Sequence: RRIRVRPPRLPRPRPRPHYPPRP
- shrunken log2 fold change: -0.675

Sequence: RRIRARPPRLPRPRPRPKWHPRP
- shrunken log2 fold change: 0.235

Sequence: RRIRERPPRLPRPRPRPIYFPRP
- shrunken log2 fold change: -0.378

Sequence: RRIRWRPPRLPRPRPRPDNSPRP
- shrunken log2 fold change: -0.0707

Sequence: RRIRTRPPRLPRPRPRPLPHPRP
- shrunken log2 fold change: -0.00316

Sequence: RRIRCRPPRLPRPRPRPSGNPRP
- shrunken log2 fold change: -0.598

Sequence: RRIRVRPPRLPRPRPRPFIDPRP
- shrunken log2 fold change: 0.0294

Sequence: RRIRMRPPRLPRPRPRPKIWPRP
- shrunken log2 fold change: 0.704

Sequence: RRIRNRPPRLPRPRPRPNFQPRP
- shrunken log2 fold change: -0.0807

Sequence: RRIRVRPPRLPRPRPRPWRLPRP
- shrunken log2 fold change: 0.426

Sequence: RRIRPRPPRLPRPRPRPARRPRP
- shrunken log2 fold change: 0.374

Sequence: RRIRTRPPRLPRPRPRPLHWPRP
- shrunken log2 fold change: 0.111

Sequence: RRIRMRPPRLPRPRPRPSLFPRP
- shrunken log2 fold change: 0.136

Sequence: RRIRMRPPRLPRPRPRPVCRPRP
- shrunken log2 fold change: 1.48

Sequence: RRIRDRPPRLPRPRPRPTTTPRP
- shrunken log2 fold change: 0.654

Sequence: RRIRVRPPRLPRPRPRPTTYPRP
- shrunken log2 fold change: -0.465

Sequence: RRIRLRPPRLPRPRPRPTIIPRP
- shrunken log2 fold change: 0.0804

Sequence: RRIRVRPPRLPRPRPRPKITPRP
- shrunken log2 fold change: -0.524

Sequence: RRIRCRPPRLPRPRPRPHMHPRP
- shrunken log2 fold change: -0.527

Sequence: RRIRFRPPRLPRPRPRPACCPRP
- shrunken log2 fold change: 0.229

Sequence: RRIRTRPPRLPRPRPRPNTSPRP
- shrunken log2 fold change: -0.43

Sequence: RRIRKRPPRLPRPRPRPSNKPRP
- shrunken log2 fold change: 0.0208

Sequence: RRIRTRPPRLPRPRPRPLVKPRP
- shrunken log2 fold change: -0.0793

Sequence: RRIRFRPPRLPRPRPRPITIPRP
- shrunken log2 fold change: -0.195

Sequence: RRIRNRPPRLPRPRPRPDWDPRP
- shrunken log2 fold change: -0.108

Sequence: RRIRWRPPRLPRPRPRPSWTPRP
- shrunken log2 fold change: -0.0457

Sequence: RRIRFRPPRLPRPRPRPPDAPRP
- shrunken log2 fold change: 0.451

Sequence: RRIRIRPPRLPRPRPRPCRRPRP
- shrunken log2 fold change: -0.23

Sequence: RRIRHRPPRLPRPRPRPKTWPRP
- shrunken log2 fold change: -0.0101

Sequence: RRIRHRPPRLPRPRPRPTLKPRP
- shrunken log2 fold change: 1.82

Sequence: RRIRARPPRLPRPRPRPNPDPRP
- shrunken log2 fold change: 0.571

Sequence: RRIRRRPPRLPRPRPRPLDAPRP
- shrunken log2 fold change: 0.472

Sequence: RRIRMRPPRLPRPRPRPIRFPRP
- shrunken log2 fold change: -0.133

Sequence: RRIRLRPPRLPRPRPRPSLKPRP
- shrunken log2 fold change: 0.0368

Sequence: RRIRFRPPRLPRPRPRPFQWPRP
- shrunken log2 fold change: -0.507

Sequence: RRIRMRPPRLPRPRPRPNAGPRP
- shrunken log2 fold change: 0.416

Sequence: RRIRCRPPRLPRPRPRPHAHPRP
- shrunken log2 fold change: -0.182

Sequence: RRIRCRPPRLPRPRPRPYELPRP
- shrunken log2 fold change: -0.18

Sequence: RRIRNRPPRLPRPRPRPTNWPRP
- shrunken log2 fold change: 0.31

Sequence: RRIRQRPPRLPRPRPRPNIIPRP
- shrunken log2 fold change: -0.247

Sequence: RRIRQRPPRLPRPRPRPPPIPRP
- shrunken log2 fold change: 0.467

Sequence: RRIRMRPPRLPRPRPRPIHAPRP
- shrunken log2 fold change: -0.0962

Sequence: RRIRVRPPRLPRPRPRPPECPRP
- shrunken log2 fold change: -0.186

Sequence: RRIRVRPPRLPRPRPRPNLGPRP
- shrunken log2 fold change: -0.185

Sequence: RRIRYRPPRLPRPRPRPEKIPRP
- shrunken log2 fold change: 0.0147

Sequence: RRIRVRPPRLPRPRPRPRMRPRP
- shrunken log2 fold change: 0.873

Sequence: RRIRERPPRLPRPRPRPWMLPRP
- shrunken log2 fold change: -0.234

Sequence: RRIRQRPPRLPRPRPRPWQNPRP
- shrunken log2 fold change: 0.0546

Sequence: RRIRMRPPRLPRPRPRPSTRPRP
- shrunken log2 fold change: 0.406

Sequence: RRIRQRPPRLPRPRPRPKDAPRP
- shrunken log2 fold change: 0.0166

Sequence: RRIRLRPPRLPRPRPRPKKEPRP
- shrunken log2 fold change: -0.0307

Sequence: RRIRVRPPRLPRPRPRPVMFPRP
- shrunken log2 fold change: -0.305

Sequence: RRIRSRPPRLPRPRPRPHHGPRP
- shrunken log2 fold change: -0.0421

Sequence: RRIRCRPPRLPRPRPRPGFYPRP
- shrunken log2 fold change: -0.449

Sequence: RRIRQRPPRLPRPRPRPWICPRP
- shrunken log2 fold change: 0.117

Sequence: RRIRSRPPRLPRPRPRPEAGPRP
- shrunken log2 fold change: 1.34

Sequence: RRIRPRPPRLPRPRPRPTKAPRP
- shrunken log2 fold change: -0.191

Sequence: RRIRVRPPRLPRPRPRPFPWPRP
- shrunken log2 fold change: -0.0892

Sequence: RRIRDRPPRLPRPRPRPAMMPRP
- shrunken log2 fold change: -0.0512

Sequence: RRIRIRPPRLPRPRPRPEKMPRP
- shrunken log2 fold change: -0.165

Sequence: RRIRSRPPRLPRPRPRPHSNPRP
- shrunken log2 fold change: -0.358

Sequence: RRIRCRPPRLPRPRPRPSWEPRP
- shrunken log2 fold change: -0.0769

Sequence: RRIRWRPPRLPRPRPRPYAPPRP
- shrunken log2 fold change: -0.232

Sequence: RRIRFRPPRLPRPRPRPDTLPRP
- shrunken log2 fold change: -0.0946

Sequence: RRIRFRPPRLPRPRPRPNERPRP
- shrunken log2 fold change: 0.047

Sequence: RRIRLRPPRLPRPRPRPRPFPRP
- shrunken log2 fold change: 0.358

Sequence: RRIRSRPPRLPRPRPRPKNTPRP
- shrunken log2 fold change: -0.356

Sequence: RRIRLRPPRLPRPRPRPNVTPRP
- shrunken log2 fold change: -0.286

Sequence: RRIRIRPPRLPRPRPRPHMWPRP
- shrunken log2 fold change: -0.321

Sequence: RRIRWRPPRLPRPRPRPDVVPRP
- shrunken log2 fold change: 0.0719

Sequence: RRIRGRPPRLPRPRPRPCWYPRP
- shrunken log2 fold change: 0.0725

Sequence: RRIRDRPPRLPRPRPRPKSSPRP
- shrunken log2 fold change: 0.0319

Sequence: RRIRRRPPRLPRPRPRPQKEPRP
- shrunken log2 fold change: 0.00366

Sequence: RRIRHRPPRLPRPRPRPTTRPRP
- shrunken log2 fold change: 0.383

Sequence: RRIRLRPPRLPRPRPRPHWYPRP
- shrunken log2 fold change: -0.128

Sequence: RRIRARPPRLPRPRPRPNTYPRP
- shrunken log2 fold change: -0.627

Sequence: RRIRVRPPRLPRPRPRPGPSPRP
- shrunken log2 fold change: 0.201

Sequence: RRIRKRPPRLPRPRPRPTQFPRP
- shrunken log2 fold change: 1.1

Sequence: RRIRKRPPRLPRPRPRPPGAPRP
- shrunken log2 fold change: 1.3

Sequence: RRIRRRPPRLPRPRPRPTNVPRP
- shrunken log2 fold change: -0.0322

Sequence: RRIRTRPPRLPRPRPRPPNYPRP
- shrunken log2 fold change: -0.101

Sequence: RRIRARPPRLPRPRPRPDNPPRP
- shrunken log2 fold change: 0.0396

Sequence: RRIRQRPPRLPRPRPRPICCPRP
- shrunken log2 fold change: 0.259

Sequence: RRIRWRPPRLPRPRPRPGWRPRP
- shrunken log2 fold change: 0.617

Sequence: RRIRIRPPRLPRPRPRPRCWPRP
- shrunken log2 fold change: 0.138

Sequence: RRIRHRPPRLPRPRPRPVEFPRP
- shrunken log2 fold change: -0.178

Sequence: RRIRIRPPRLPRPRPRPCWAPRP
- shrunken log2 fold change: -0.283

Sequence: RRIRIRPPRLPRPRPRPHQDPRP
- shrunken log2 fold change: -0.122

Sequence: RRIRVRPPRLPRPRPRPVDSPRP
- shrunken log2 fold change: 0.0147

Sequence: RRIRGRPPRLPRPRPRPGVCPRP
- shrunken log2 fold change: 0.892

Sequence: RRIRLRPPRLPRPRPRPQYPPRP
- shrunken log2 fold change: -0.765

Sequence: RRIRQRPPRLPRPRPRPECNPRP
- shrunken log2 fold change: 0.062
